Measurements as given in article PMC4412574, “On-Off Kinetics of Engagement of FNI Modules of Soluble Fibronectin by β-Strand Addition” (PLoS ONE, 2015).
Peptide text beside a SMILES is read from it.

Columns and labels:
[1] = target: FN70K fragment (N-terminal 70-kDa region of fibronectin); experiment: fluorescence polarisation; stopped-flow with crossed polarizers, direct binding at a single concentration: 10 nM AFpolypeptide mixed with 100 nM FN70K; kon from kobs and the koff of displacement (koff taken as 0 for FUD and HADD); TBS with 100 mM NaCl, 25°C
plasma fibronectin (FN) [2] = target: plasma fibronectin (FN) (UniProt P02751); experiment: fluorescence polarisation; stopped-flow with crossed polarizers, displacement: 10 nM AFpolypeptide pre-mixed 30 min with 100 nM FN or FN70K, then 1 uM of the same unlabeled polypeptide; single exponential fit; TBS with 100 mM NaCl, 25°C
plasma fibronectin (FN) [3] = target: plasma fibronectin (FN) (UniProt P02751); experiment: fluorescence polarisation; stopped-flow with crossed polarizers, direct binding: 10 nM AFpolypeptide mixed with 100, 200, 300, 400 or 500 nM FN; kobs against [FN], kon from the slope, koff from the y-intercept; TBS with 100 mM NaCl, 25°C
[4] = target: FN70K fragment (N-terminal 70-kDa region of fibronectin); experiment: fluorescence polarisation + SEC; KD limit calculated as koff/kon from the stopped-flow on-rate and the upper limit of koff by chromatography
plasma fibronectin (FN) [5] = target: plasma fibronectin (FN) (UniProt P02751); experiment: as above
[6] = target: FN70K fragment (N-terminal 70-kDa region of fibronectin); experiment: SEC; data not shown: the same size exclusion experiment as for FN-AFFUD, with FN70K-AFFUD, FN-AFHADD or FN70K-AFHADD
plasma fibronectin (FN) [7] = target: plasma fibronectin (FN) (UniProt P02751); experiment: as above
plasma fibronectin (FN) [8] = target: plasma fibronectin (FN) (UniProt P02751); experiment: ELISA; competitive: FN coated on 96-well plate (50 ul, 20 nM); 0.5 nM b-FUD or b-Bbk32 mixed with unlabeled FUD or Bbk32 at 1, 10, 100 or 1000 nM, 1 h; bound biotinylated polypeptide detected with enzyme-conjugated (strept)avidin
[9] = target: FN70K fragment (N-terminal 70-kDa region of fibronectin); experiment: fluorescence polarisation; KD calculated as koff/kon from the stopped-flow on-rate and the off-rate of the stopped-flow displacement
plasma fibronectin (FN) [10] = target: plasma fibronectin (FN) (UniProt P02751); experiment: as above
plasma fibronectin (FN) [11] = target: plasma fibronectin (FN) (UniProt P02751); experiment: fluorescence polarisation; stopped-flow with crossed polarizers, displacement: 10 nM AFpolypeptide pre-mixed 30 min with 100 nM FN or FN70K, then 1 uM of the same unlabeled polypeptide; single exponential fit; TBS with 100 mM NaCl, 25°C; remark: listed apart in the source
[12] = target: FN70K fragment (N-terminal 70-kDa region of fibronectin); experiment: as above
plasma FN [13] = target: T1, plasma FN (Homo sapiens, UniProt P02751); experiment: Stopped-flow displacement of AFpolypeptide from FN complex by unlabeled polypeptide (or size exclusion chromatography); format: binding; details: 1 μM unlabeled polypeptide, over 180 sec (Fig 3E-H)
T1 sequence (P02751 32-609): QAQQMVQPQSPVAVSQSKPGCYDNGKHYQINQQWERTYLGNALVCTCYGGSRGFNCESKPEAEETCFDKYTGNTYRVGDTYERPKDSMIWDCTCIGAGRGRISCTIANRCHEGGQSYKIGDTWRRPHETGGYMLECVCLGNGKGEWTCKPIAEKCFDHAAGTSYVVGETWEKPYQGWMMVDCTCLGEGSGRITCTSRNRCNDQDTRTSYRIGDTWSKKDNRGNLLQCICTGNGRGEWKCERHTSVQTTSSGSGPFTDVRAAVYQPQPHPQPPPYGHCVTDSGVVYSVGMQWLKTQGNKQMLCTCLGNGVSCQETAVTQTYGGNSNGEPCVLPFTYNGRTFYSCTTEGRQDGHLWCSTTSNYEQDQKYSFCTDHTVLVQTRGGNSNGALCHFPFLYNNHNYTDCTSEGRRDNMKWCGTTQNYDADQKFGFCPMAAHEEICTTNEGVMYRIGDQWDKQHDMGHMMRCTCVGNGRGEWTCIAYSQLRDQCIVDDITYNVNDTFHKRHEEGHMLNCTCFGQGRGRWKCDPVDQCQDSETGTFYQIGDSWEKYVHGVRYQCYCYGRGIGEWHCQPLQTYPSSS
Protocol: (§1) Measurements were in TBS with 100mM NaCl at 25°C. Reactants separated in two syringes were injected by SFA-20 rapid kinetics accessory (Hi-Tech Scientific, Salisbury, England) into the cuvette for mixing in QuantaMaster 300 spectrofluorimeter (Photon Technology International, Edison, New Jersey) with excitation and emission polarizers of 90 degree. The excitation and emission wavelength were 485nm and 535 nm respectively. Upon mixing the fluorescence intensity were recorded at a rate of 10 points/sec during the reaction procedure. In the absence of FN or FN70K, there was no change in fluorescence polarization for any of the AFpolypeptides.
In displacement assays, unlabeled FUD, HADD, FRD, Bbk32, or ΔBbk32 in 10-fold molar excess of FN or FN70K was mixed with complex of AFpolypeptide and FN or FN70K. For ΔBbk32, only displacement from FN was measured. The k off value is calculated by Ft = Fmin+Fmax-Fmin1-e^-kofft (3) in which k off is the dissociation rate constant. The k on of FN70K-AFpolypeptide was determined by Eq based on [FN70K] and the k off of FN70K-AFpolypeptide obtained from Eq.
Fractions of 0.5 ml were collected and assayed. FN was monitored by absorbance at 280 nm by NanoDrop 2000 UV-Vis Spectrophotometer (Thermo Scientific, Wilmington, DE) and AFpolypeptide by Tecan Genios Pro microplate reader with excitation 485 nm and emission 535 nm. […]

plasma FN [14] = target: T1, plasma FN; experiment: Stopped-flow fluorimetry (crossed polarizers), direct binding of AFpolypeptide to a series of FN concentrations; details: as restated in text from Table 1; read-out: k on of FN-AFpolypeptide interaction
Protocol: as §1
In direct binding assays, AFFUD, AFHADD, AFFRD or AFBbk32, 10 nM, was mixed with a series of FN concentrations or with FN70K at 100 nM. AFΔBbk32 was studied only with FN at 100 nM. For each experiment, four or five curves were generated, and k obs was calculated by F(t) = Fmin+(Fmax-Fmin)e^-kobst (1) where F(t) is fluorescence intensity at time point t. Fmax or Fmin is maximum or minimum fluorescence intensity, and the rate constant k is k obs. […]
Stopped-flow fluorimetry with crossed-polarizers was performed to study on-off kinetics of the FN-AFpolypeptide interactions. Upon mixing 10 nM AFFUD, AFHADD, AFFRD or AFBbk32 with increasing concentration (100, 200, 300, 400, or 500 nM) of FN, decreases of fluorescence intensity were observed (Fig 3). […]

FN70K fragment = target: T2, FN70K fragment (Homo sapiens, UniProt P02751); experiment: Size exclusion chromatography of FN70K-AFpolypeptide complex; format: binding; details: data not shown, read-out: k off estimated from size exclusion chromatography
T2 construct: the FN70K domain comprising the N-terminal ^1-9FNI and ^1-2FNII modules of FN; from tissue; host or cells: proteolytic fragment of FN
T2 sequence (P02751 32-609 limits assumed): as the sequence (P02751 32-609) above
Protocol: (§2) Fractions of 0.5 ml were collected and assayed. FN was monitored by absorbance at 280 nm by NanoDrop 2000 UV-Vis Spectrophotometer (Thermo Scientific, Wilmington, DE) and AFpolypeptide by Tecan Genios Pro microplate reader with excitation 485 nm and emission 535 nm. FN, AFFUD or AFBbk32 was analyzed by itself as a control. The k off of FN-AFFUD complex was estimated by estimating the lower limit of half-life (t1/2) of complex decay and the following equation: t1/2 = 0.693/koff (4)
(§3) To corroborate the estimates from stopped-flow fluorimetry of k off for the FN-FUD or FN-Bbk32 interaction by a second method, size exclusion chromatography of the FN-AFFUD or FN-AFBbk32 complex was carried out. […] Elution patterns of FN alone (Fig 6C), AFFUD alone (Fig 6D), and AFBbk32 alone (Fig 6E) are also shown. FN eluted at 20 min. We estimate, therefore, that the half-life of FN-AFFUD is longer than 20 min and, according to Eq, the k off of FN-AFFUD is < 10^-3 s^-1, which is more than 20-fold slower than that estimated for FN-AFBbk32 by Eq or the displacement experiment (Table 1).

plasma FN [15] = target: T1, plasma FN; experiment: Size exclusion chromatography of FN-AFpolypeptide complex; format: binding; details: from half-life lower limit by Eq 4, read-out: k off estimated from size exclusion chromatography
Protocol: as §2, §3
Fig 6 FPLC size exclusion of FN-AFFUD or FN-AFBbk32 complex. […] Absorbance at 280nm (A^280nm), and emission at 535 nm upon excitation at 485 nm (E^535nm) were measured to estimate, respectively, concentration of FN and AFpolypeptide and expressed relative to the values in starting material. […]

plasma fibronectin (FN) [16] = target: plasma fibronectin (FN) (UniProt P02751); experiment: SEC; 400 nM FN and 40 nM AFFUD or AFBbk32 mixed 30 min in TBS with 100 mM NaCl, Superose 6 10/300 at 0.5 ml/min; FN by A280, AFpolypeptide by fluorescence; koff from the lower limit of the half-life

With “AFHADD (HADD labeled with Alexa 488 on the N-terminal cysteine) (domain or fragment)” the kon [1] was 9.7e+06 M⁻¹ s⁻¹, the percent of the fluorescence intensity decrease reversed over 180 sec by 1 uM unlabeled polypeptide (plasma fibronectin (FN) [2]) was under 10% and the kon (plasma fibronectin (FN) [3]) was 430000 M⁻¹ s⁻¹. For the same molecule, the Kd [4] was under 0.1 nM, the Kd (plasma fibronectin (FN) [5]) was under 2.3 nM and the koff [6] was under 0.001 s⁻¹. The koff (plasma fibronectin (FN) [7]) was under 0.001 s⁻¹.
For “FUD, unlabeled (version with the N-terminal cysteine) (domain or fragment)”, the IC50 (plasma fibronectin (FN) [8]) was 10 nM.
In the case of “AFFRD (FRD labeled with Alexa 488 on the N-terminal cysteine) (domain or fragment)”, the kon [1] is reported as 4.1e+06 M⁻¹ s⁻¹, the Kd [9] is reported as 3.1 nM and the Kd (plasma fibronectin (FN) [10]) is reported as 70 nM. It also gave a koff (plasma fibronectin (FN) [11]) of 0.02 s⁻¹, a koff [12] of 0.013 s⁻¹ and a koff (plasma fibronectin (FN) [2]) of 0.021 s⁻¹. The koff (plasma fibronectin (FN) [3]) was 0.027 to 0.039 s⁻¹ and the kon (plasma fibronectin (FN) [3]) was 290000 M⁻¹ s⁻¹.
For “Bbk32, unlabeled (version with the N-terminal cysteine) (domain or fragment)”, the IC50 (plasma fibronectin (FN) [8]) was 30 nM and the percent of b-FUD binding to FN left at 1000 nM Bbk32 (plasma fibronectin (FN) [8]) was over 60%.
C[C@H](N)C(=O)N[C@@H](Cc1ccccc1)C(=O)N[C@@H](Cc1c[nH]cn1)C(=O)N[C@@H](C)C(=O)N[C@@H](CC(=O)O)C(=O)N[C@@H](CC(=O)O)C(=O)O [AFHADD] (H-AFHADD-OH) was tested, and the “reversal of fluorescence intensity decrease on displacement” value (plasma FN [13]) was “less than 10%”, the kon (plasma FN [14]) was 430000 M⁻¹ s⁻¹ and the koff (FN70K fragment) was under 0.001 s⁻¹. The koff (plasma FN [15]) was under 0.001 s⁻¹.
“AFBbk32 (Bbk32 labeled with Alexa 488 on the N-terminal cysteine) (domain or fragment)” was tested, and the kon [1] was 2.4e+06 M⁻¹ s⁻¹, the Kd [9] was 14 nM and the Kd (plasma fibronectin (FN) [10]) was 140 nM. For the same molecule, the koff [12] was 0.033 s⁻¹, the koff (plasma fibronectin (FN) [2]) was 0.025 s⁻¹ and the koff (plasma fibronectin (FN) [3]) was 0.036 to 0.041 s⁻¹. The kon (plasma fibronectin (FN) [3]) was 180000 M⁻¹ s⁻¹.
In the case of “AFFUD (FUD labeled with Alexa 488 on the N-terminal cysteine) (domain or fragment)”, the kon [1] is reported as 3.9e+06 M⁻¹ s⁻¹, the percent of the fluorescence intensity decrease reversed over 180 sec by 1 uM unlabeled polypeptide (plasma fibronectin (FN) [2]) is reported as under 10% and the kon (plasma fibronectin (FN) [3]) is reported as 390000 M⁻¹ s⁻¹. It also gave a Kd [4] of under 0.26 nM, a Kd (plasma fibronectin (FN) [5]) of under 2.6 nM and a koff [6] of under 0.001 s⁻¹. It also gave a half-life of the complex (plasma fibronectin (FN) [16]) of over 20 min, a koff (plasma fibronectin (FN) [16]) of under 0.001 s⁻¹ and a percent of AFFUD eluting with FN (plasma fibronectin (FN) [16]) of 100%.
